Assay results: the Human Domainome abundance scans (Beltran et al. 2025)
± gives the uncertainty stated by the source.

B1: SWI/SNF-related matrix-associated actin-dependent regulator of chromatin subfamily B member 1, residues 181 to 248; numbered along this chain, Q12824 (parent)
chain: SQPEVLVPIRLDMEIDGQKLRDAFTWNMNEKLMTPEMFSEILCDDLDLNPLTFVPAIASAIRQQIESY

Variants of: B1
Assay: abundance fitness (aPCA) (normalised: wild type 0, dead -1); higher = more abundant; growth selection in yeast, the domain comes from the species named
Conditions: Homo sapiens

Variant	abundance fitness
F38S	-0.809 ± 0.24
F38M	-0.637 ± 0.48
F38W	-0.235 ± 0.21
F38T	-0.722 ± 0.28
F38R	0.11 ± 0.14
F38K	0.132 ± 0.38
F38C	-0.675 ± 0.24
F38L	-0.284 ± 0.17
F38Y	-0.509 ± 0.49
T34G	-0.686 ± 0.25
T34Q	-0.881 ± 0.39
T34E	-0.388 ± 0.49
T34C	-0.831 ± 0.23
T34I	-0.848 ± 0.39
T34S	-0.205 ± 0.073
T34R	-0.876 ± 0.17
T34W	-0.615 ± 0.41
T34V	-0.35 ± 0.15
T34P	-0.454 ± 0.38
N29L	-0.939 ± 0.25
N29G	-0.244 ± 0.087
N29F	-0.736 ± 0.28
N29Q	-0.476 ± 0.45
N29K	-0.286 ± 0.096

Variant	abundance fitness
N29D	-0.212 ± 0.24
N29R	-0.273 ± 0.23
N29S	-0.136 ± 0.28
N29V	-0.727 ± 0.21
C43L	-0.808 ± 0.083
C43Q	-0.72 ± 0.11
C43G	-0.739 ± 0.12
C43S	-0.79 ± 0.082
C43R	-0.831 ± 0.1
C43E	-1.02 ± 0.35
C43N	-1.03 ± 0.19
C43W	-0.497 ± 0.097
C43A	-0.467 ± 0.099
C43Y	-0.662 ± 0.1
C43H	-0.956 ± 0.15
C43V	-0.249 ± 0.035
C43K	-0.613 ± 0.11
C43T	-0.971 ± 0.18
C43M	-0.686 ± 0.15
S39P	-0.685 ± 0.38
S39R	-0.797 ± 0.36
E40H	-0.236 ± 0.065
E40M	-0.149 ± 0.073
E40Q	0.005 ± 0.065

Variant	abundance fitness
E40K	-0.015 ± 0.055
E40A	0.038 ± 0.033
E40N	-0.269 ± 0.11
E40G	-0.347 ± 0.036
E40W	-0.511 ± 0.06
E40I	-0.419 ± 0.099
E40F	-0.463 ± 0.17
E40R	0.042 ± 0.033
E40S	-0.114 ± 0.045
E40D	-0.566 ± 0.089
E40V	-0.215 ± 0.041
E40P	-0.794 ± 0.14
E40Y	-0.33 ± 0.082
E40T	-0.12 ± 0.045
N27T	-0.552 ± 0.3
N27S	-0.582 ± 0.31
N27R	-0.684 ± 0.14
N27Y	-0.831 ± 0.28
N27W	-0.909 ± 0.25
L42R	-0.211 ± 0.045
L42V	-0.111 ± 0.061
L42M	0.117 ± 0.064
L42Y	-0.071 ± 0.12
L42W	-0.883 ± 0.34

Variant	abundance fitness
L42S	-0.69 ± 0.14
L42N	-0.549 ± 0.11
L42P	-0.33 ± 0.1
L42E	-0.978 ± 0.11
L42T	-0.854 ± 0.13
L42K	-0.106 ± 0.072
L42F	-0.128 ± 0.21
L42D	-0.869 ± 0.19
L42C	-0.846 ± 0.2
L42H	-0.636 ± 0.12
L42I	-0.005 ± 0.082
L42A	-0.721 ± 0.1
L42G	-0.909 ± 0.1
K31F	-0.397 ± 0.42
K31V	-0.146 ± 0.061
K31C	-0.391 ± 0.095
K31Q	-0.085 ± 0.07
K31T	0.084 ± 0.096
K31R	-0.113 ± 0.043
K31D	0.018 ± 0.17
K31A	0.031 ± 0.077
K31H	-0.169 ± 0.078
K31W	-0.533 ± 0.1
K31S	-0.063 ± 0.065

Variant	abundance fitness
M28L	0.087 ± 0.16
M28T	-0.277 ± 0.24
M28V	-0.086 ± 0.14
M28P	-0.5 ± 0.21
I41F	-0.103 ± 0.092
I41R	0.218 ± 0.03
I41A	0.207 ± 0.04
I41H	0.034 ± 0.061
I41K	0.314 ± 0.05
I41Y	-0.057 ± 0.076
I41W	-0.04 ± 0.045
I41L	-0.011 ± 0.036
I41N	0.167 ± 0.068
I41D	-0.04 ± 0.12
I41Q	0.211 ± 0.06
I41T	0.091 ± 0.049
I41M	0.131 ± 0.048
I41C	-0.062 ± 0.061
I41E	0.131 ± 0.043
I41V	0.01 ± 0.04
I41G	0.097 ± 0.041
I41S	0.174 ± 0.033
D44T	-0.467 ± 0.28
D44H	0.258 ± 0.17

Variant	abundance fitness
D44Q	-0.028 ± 0.11
D44G	-0.276 ± 0.16
D44E	0.309 ± 0.22
D44M	-0.473 ± 0.26
D44S	0.043 ± 0.1
D44I	-0.259 ± 0.17
D44K	0.177 ± 0.17
D44N	-0.403 ± 0.47
D44L	-0.251 ± 0.11
D44A	0.271 ± 0.22
D44V	-0.008 ± 0.27
L32N	0.207 ± 0.1
L32A	0.056 ± 0.036
L32K	0.176 ± 0.058
L32P	-0.821 ± 0.21
L32S	0.059 ± 0.036
L32H	0.146 ± 0.053
L32C	-0.075 ± 0.075
L32W	-0.113 ± 0.061
L32V	0.068 ± 0.031
L32M	0.085 ± 0.046
L32D	0.181 ± 0.05
L32G	0.061 ± 0.03
L32F	0.09 ± 0.079

Variant	abundance fitness
L32T	0.134 ± 0.055
L32Y	0.061 ± 0.058
L32Q	0.099 ± 0.047
L32E	0.207 ± 0.045
E30W	0.023 ± 0.32
E30A	-0.619 ± 0.34
E30G	-0.617 ± 0.32
M33Y	-0.421 ± 0.17
M33L	0.01 ± 0.039
M33T	-0.279 ± 0.21
M33V	-0.248 ± 0.052
M33S	-0.743 ± 0.14
M33W	-0.488 ± 0.068
M33F	-0.542 ± 0.26
M33G	-0.797 ± 0.1
M33E	-0.794 ± 0.15
M33K	-0.325 ± 0.091
M33Q	-0.191 ± 0.076
M33R	-0.418 ± 0.046
M33H	-0.293 ± 0.12
M33I	-0.104 ± 0.12
M33A	-0.563 ± 0.091
M33P	-0.113 ± 0.15
